The record followed here is doi:10.1101/2022.01.10.475532.

In test [1] the target is prefusion-stabilized S protein of SARS-CoV-2 Delta (B.1.617.2) variant (S trimer) (SARS-CoV-2). The experiment in a line: BLI. A general note: In BLI a coated tip is dipped into the sample, and binding shifts an interference pattern.
Test [2] has as its target prefusion-stabilized S protein of SARS-CoV-2 G614 variant (S trimer) (SARS-CoV-2). The experiment in a line: BLI.

human ACE2 peptidase domain (PD), sequence (Q9BYF1 18-615): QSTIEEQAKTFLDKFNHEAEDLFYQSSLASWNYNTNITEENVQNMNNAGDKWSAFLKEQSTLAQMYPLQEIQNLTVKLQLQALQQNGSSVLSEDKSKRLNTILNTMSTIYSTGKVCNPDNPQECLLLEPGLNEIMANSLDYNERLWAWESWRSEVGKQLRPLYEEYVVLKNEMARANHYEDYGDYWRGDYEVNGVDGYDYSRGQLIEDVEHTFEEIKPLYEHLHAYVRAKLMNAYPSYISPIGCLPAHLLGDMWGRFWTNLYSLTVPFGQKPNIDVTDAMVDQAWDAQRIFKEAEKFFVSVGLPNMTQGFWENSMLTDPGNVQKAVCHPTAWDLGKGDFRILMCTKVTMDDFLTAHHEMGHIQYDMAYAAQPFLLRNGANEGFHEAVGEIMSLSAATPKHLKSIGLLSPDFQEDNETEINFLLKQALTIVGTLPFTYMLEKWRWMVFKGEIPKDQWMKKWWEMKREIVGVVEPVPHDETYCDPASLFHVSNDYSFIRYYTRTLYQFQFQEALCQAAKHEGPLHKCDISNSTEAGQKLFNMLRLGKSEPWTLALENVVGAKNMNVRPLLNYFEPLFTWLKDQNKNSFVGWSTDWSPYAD

In the case of “human ACE2 peptidase domain (PD) (from UniProt Q9BYF1 18-615) (domain or fragment)”, the results for the Kd in test [1] and in test [2] were 0.088 µM and 0.237 µM, respectively.
